Data from the RNAGym collection of RNA variant scans (doi:10.7554/elife.80360).

B1: HDV Ribozyme (parent)
chain: GGCCGGCAUGGUCCCAGCCUCCUCGCUGGCGCCGGCUGGGCAACAUUCCGAGGGGACCGUCCCCUCGGUAAUGGCGAAUGGGACCCA

Variants of: B1
Assay: self-cleavage, relative activity (ratio to wild type); higher = more cleavage; co-transcriptional

In order of falling self-cleavage:
1. GGCCGGCAUGGUCCCAGCCUCCUCGCUGGCGCCGACUGGGCAACAUUCCGAGGGGACCGUCCCCUCGGUAAUGGCAAAUGGGACCCA  0.709
2. GGCCGGCAUGGUCCCAGCCUCCUCGCUGGCGCCGACUGGGCAACAUUCCGAGGGGAGCGUCCCCUCGGUAAUGGCGAAUGGGACCCA  0.684
3. GGCCGGCAUGGUCCCAGCCUCCUCGCUGGCGCCGACUGGGCAACAUUCCGAGGGGACCGUCUCCUCGGUAAUGGCGAAUGGGACCCA  0.665
4. GGCCGGCAUGGUCCCAGCCUCCUCGCUGGCGCCGACUGGGCAACAUUCCGAGGGGACCGUCCCCUUGGUAAUGGCGAAUGGGACCCA  0.655
5. GGCCGGCAUGGUCCCAGCCUCCUCGCUGGCGCCGACUGGGCAACAUUCCGAGGGGACCGUCCCCUCGGAAAUGGCGAAUGGGACCCA  0.571
6. GGCCGGCAUGGUCCCAGCCUCCUCGCUGGCGCCGACUGGGCAACAUUCCGAGGGGACCGGCCCCUCGGUAAUGGCGAAUGGGACCCA  0.554
7. GGCCGGCAUGGUCCCAGCCUCCUCGCUGGCGCCGACUGGGCAACAUUCCGAGGGGACCGUCCCCGCGGUAAUGGCGAAUGGGACCCA  0.554
8. GGCCGGCAUGGUCCCAGCCUCCUCGCUGGCGCCGACUGGGCAACAUUCCGAGGGGACCGUCCCCUCGGUAAUGGCGAAUGGGAGCCA  0.45
9. GGCCGGCAUGGUCCCAGCCUCCUCGCUGGCGCCGACUGGGCAACAUUCCGAGGGGACCGUCGCCUCGGUAAUGGCGAAUGGGACCCA  0.448
10. GGCCGGCAUGGUCCCAGCCUCCUCGCUGGCGCCGCCUGGGCAACAUUCCGGGGGGACCGUCCCCUCGGUAAUGGCGAAUGGGACCCA  0.415
11. GGCCGGCAUGGUCCCAGCCUCCUCGCUGGCGCCGACUGGGCAACAUUCCGAGGGGACCGUCCCCUCGGUAAUGGCGAAUGGGACCCU  0.391
12. GGCCGGCAUGGUCCCAGCCUCCUCGCUGGCGCCGCCUGGGCAACAUUCCGAGGGGAACGUCCCCUCGGUAAUGGCGAAUGGGACCCA  0.302
13. GGCCGGCAUGGUCCCAGCCUCCUCGCUGGCGCCGCCUGGGCAACAUUCCGCGGGGACCGUCCCCUCGGUAAUGGCGAAUGGGACCCA  0.297
14. GGCCGGCAUGGUCCCAGCCUCCUCGCUGGCGCCGACUGGGCAACAUUCCGAGGGGACCGUCCCCUCGGUAACGGCGAAUGGGACCCA  0.283
15. GGCCGGCAUGGUCCCAGCCUCCUCGCUGGCGCCGACUGGGCAACAUUCCGAGGGGACCGUCCCCUCGGUAAUGGCGAACGGGACCCA  0.282
16. GGCCGGCAUGGUCCCAGCCUCCUCGCUGGCGCCGACUGGGCAACAUUCCGAGGGGACCGUCCCCUCGGUAAUGGCGAAUGAGACCCA  0.277
17. GGCCGGCAUGGUCCCAGCCUCCUCGCUGGCGCCGACUGGGCAACAUUCCGAGGGGACCGUCCCCUCGGUAAUGGCGAAUGGUACCCA  0.241
18. GGCCGGCAUGGUCCCAGCCUCCUCGCUGGCGCCGCCUGGGCAACGUUCCGAGGGGACCGUCCCCUCGGUAAUGGCGAAUGGGACCCA  0.237
19. GGCCGGCAUGGUCCCAGCCUCCUCGCUGGCGCCGCCUGGGCAACAUUCCGAGGGGUCCGUCCCCUCGGUAAUGGCGAAUGGGACCCA  0.232
20. GGCCGGCAUGGUCCCAGCCUCCUCGCUGGCGCCGCCUGGGCAACAUUCCGAGGGGACCGUCCCCUCGGUGAUGGCGAAUGGGACCCA  0.208
21. GGCCGGCAUGGUCCCAGCCUCCUCGCUGGCGCCGCCUGGGCAACAUUCCGAGGGGAGCGUCCCCUCGGUAAUGGCGAAUGGGACCCA  0.201
22. GGCCGGCAUGGUCCCAGCCUCCUCGCUGGCGCCGCCUGGGGAACAUUCCGAGGGGACCGUCCCCUCGGUAAUGGCGAAUGGGACCCA  0.161
23. GGCCGGCAUGGUCCCAGCCUCCUCGCUGGCGCCGACUGGGCAACAUUCCGAGGGGACCGUCCCCUCGGUAAUGGAGAAUGGGACCCA  0.151
24. GGCCGGCAUGGUCCCAGCCUCCUCGCUGGCGCCGCCUGGGCAAGAUUCCGAGGGGACCGUCCCCUCGGUAAUGGCGAAUGGGACCCA  0.145
25. GGCCGGCAUGGUCCCAGCCUCCUCGCUGGCGCCGACUGGGCAACAUUCCGAGGGGACCGUCCCCUCGGUAAUGGUGAAUGGGACCCA  0.133
26. GGCCGGCAUGGUCCCAGCCUCCUCGCUGGCGCCGCCUGGGCAACAUUCCGAGGGGGCCGUCCCCUCGGUAAUGGCGAAUGGGACCCA  0.128
27. GGCCGGCAUGGUCCCAGCCUCCUCGCUGGCGCCGCCUGGGCAACAUUCCGAGGGGACCGUCCCAUCGGUAAUGGCGAAUGGGACCCA  0.113
28. GGCCGGCAUGGUCCCAGCCUCCUCGCUGGCGCCGACUGGGCAACAUUCCGAGGGGACCGUCCCCUCGGUAAUGGCGAAUGGGCCCCA  0.0692
29. GGCCGGCAUGGUCCCAGCCUCCUCGCUGGCGCCGACUCGGCAACAUUCCGAGGGGACCGUCCCCUCGGUAAUGGCGAAUGGGACCCA  0.0652
30. GGCCGGCAUGGUCCCAGCCUCCUCGCUGGCGCCGCCUGGGCAACAUUCCGAGGGGACCGUCCGCUCGGUAAUGGCGAAUGGGACCCA  0.0449
31. GGCCGGCAUGGUCCCAGCCUCCUCGCUGGCGCCGCCUGGGCAUCAUUCCGAGGGGACCGUCCCCUCGGUAAUGGCGAAUGGGACCCA  0.0386
32. GGCCGGCAUGGUCCCAGCCUCCUCGCUGGCGCCGACUGGGCAACCUUCCGAGGGGACCGUCCCCUCGGUAAUGGCGAAUGGGACCCA  0.0378
